Results as given in US20230235039A1 (REGENECORE BIOTECH, published 2023).
Positions count from the first letter of the chain named.

B1: humanized Fc-fused single-domain antibody 2B3-V2 (Fc fusion, not shown: a dimerising Fc or GST)
chain (part 1 of 2): QVQLVESGGGSVQAGGSLRLSCAASGNTFSFSTYCMGWFRQSPGKEREGSLATIYDASTAYAGSVKGRFTISRDNSKNILYLQMNNLRAEDTAVYYCAAARYCMFWSHPSYWGQGTQVTVSS
chain (part 2 of 2): HHHHHH
notes: Humanized variant of 2B3; vector RJK-V4-hFC
B2: Fc fusion protein of anti-IL-5 single-domain antibody 2B3 (Fc fusion, not shown: a dimerising Fc or GST)
chain (part 1 of 2): B1 chain (part 1 of 2) with A57G, R73V, S76A, R88K, A89P, V94M, R101K, H108D
chain (part 2 of 2): HHHHHH
notes: Vector RJK-V4-hFC; also called clone 2B3
B3: humanized Fc-fused single-domain antibody 1B3-V2 (Fc fusion, not shown: a dimerising Fc or GST)
chain (part 1 of 2): QVQLVESGGGSVQAGGSLRLSCAASGITASTSCMGWFRQSPGKEREGSLATIYDASTSYADSVKGRFTISRDNSKNILYLQMNNLRAEDTAVYYCAAARYCMFWSHPSYWGQGTQVTVSS
chain (part 2 of 2): HHHHHH
notes: Humanized variant of 1B3; vector RJK-V4-hFC
B4: Fc fusion protein of anti-IL-5 single-domain antibody 1B3 (Fc fusion, not shown: a dimerising Fc or GST)
chain (part 1 of 2): B3 chain (part 1 of 2) with A55G, R71V, S74A, R86K, A87P, V92M, R99K
chain (part 2 of 2): HHHHHH
notes: Vector RJK-V4-hFC; Embodiments name a human IgG4 Fc; also called clone 1B3
B5: single-domain antibody 1B3 (VHH, expressed in E. coli) (VHH)
VHH: B3 chain (part 1 of 2) with A55G, R71V, S74A, R86K, A87P, V92M, R99K
notes: pMECS-VHH expressed in E. coli HB2151, purified on Ni-column; not shown: C-terminal tags from vector pMECS (HA tag, and the His tag implied by Ni-column purification)
B6: single-domain antibody 1B8 (VHH, expressed in E. coli) (VHH)
VHH: B3 chain (part 1 of 2) with A55G, R66Q, R71V, S74A, R86K, A87P, V92M, R99K
notes: as for B5

These binders were tested against T1, human recombinant IL-5 protein with a histidine tag at carboxyl terminal (human, UniProt P05113 20-134) (assay: BLI (Octet 96), binding molecule on sensor, IL-5 antigen 200 nM and 2-fold dilutions).
T1 construct: range 20-134; Expressed in 293F cells; also called hrIL-5-cHis; human IL-5 protein; not shown: histidine tag at carboxyl terminal
Experimental: Formulation of SD buffer: A proper amount of bovine serum albumin and Tween 20 were dissolved in 1×PBS (pH 7.4), so that the mass (or volume) fractions of bovine serum albumin and Tween 20 were 0.1% and 0.02% respectively. The IL-5 binding molecule was formulated in the SD buffer to a concentration of 10 μg/mL. Formulation of antigen working solution: the antigen was formulated in the SD buffer to 200 nM, and then diluted by a 2-fold gradient in a total of 5 concentration gradients. In addition, a blank control of SD buffer was also provided. A proper amount of 0.1M glycine stock solution was diluted by 10-fold in deionized water and mixed uniformly, to obtain a regeneration solution. Octet 96 and the Data Acquisition software in its supporting computer were run. The bottom and side of the acquisition probe were cleaned using a lens tissue with a proper amount of 75% ethanol. The instrument was pre-warmed for 15 min or more. Sensor pre-wetting: sensor was soaked in the SD buffer for 10 min or more before the assay. Then, the machine procedure was set according to baseline→antibody→baseline→binding antigen→dissociating antigen→regenerating sensor for assay operation.

Row | Binder | Kd [nM] | koff [s⁻¹] | kon [M⁻¹ s⁻¹]
1 | B1 | 2.06 | 0.000406 | 197000
2 | B2 | 1.6 | 0.000295 | 184000
3 | B3 | 1.02 | 0.000184 | 180000
4 | B4 | 0.88 | 0.000132 | 149000

These binders were tested against T1, human recombinant IL-5 protein with a … (assay: ELISA, IL-5 protein coated on the plate, VHH titrated, anti-HA tag HRP secondary antibody, OD450).
Experimental: 50 μL of 1 μg/mL IL-5 protein was coated on an ELISA plate at 4° C. overnight. The plate was washed. 200 μL of 5% milk was added for blocking at 37° C. for 1 h. The IL-5 protein-specific single-domain antibody (VHH) obtained in Example 1 was diluted to 2 μg/mL, and then diluted by a 5-fold gradient, in a total of 8 concentration gradients. The plate was washed. 50 μL of antibody was added in duplicate wells, and then incubated at 37° C. for 1 h. The plate was washed. 50 μL of mouse anti-HA tag HRP secondary antibody was added, and then incubated at 37° C. for 30 min. The plate was washed (for multiple times). 50 μL of TMB that had been restored to room temperature was added to react at room temperature in the dark for 15 min. 50 µL of stopping solution (1N HCl) was added. The resultant was measured using a microplate reader and then recorded. The curve was plotted.

Row | Binder | EC50 (read off the curve) [nM]
5 | B5 | ~6
6 | B6 | ~4
